In US20140309177:

Key:
Test in all cases: cell_activity
Details in all cases: HEK293T luciferase reporter, single TALE-TF
[1] = system: IL1RN TALE-B TALE-TF (VP64) (synthetic (Xanthomonas TALE)?)
[2] = biological target: IL1RN TALE-D TALE-TF (VP64) (synthetic (Xanthomonas TALE)?) (UniProt P14727)
[3] = biological target: IL1RN TALE-A TALE-TF (VP64) (synthetic (Xanthomonas TALE)?) (UniProt Q56830)
[4] = system: IL1RN TALE-C TALE-TF (VP64) (synthetic (Xanthomonas TALE)?)
[5] = biological target: KLK3 TALE F TALE-TF (VP64) (synthetic (Xanthomonas TALE)?) (UniProt Q56830)
[6] = biological target: KLK3 TALE-A TALE-TF (VP64) (synthetic (Xanthomonas TALE)?) (UniProt Q56830)
[7] = system: KLK3 TALE D TALE-TF (VP64) (synthetic (Xanthomonas TALE)?)
[8] = biological target: KLK3 TALE E TALE-TF (VP64) (synthetic (Xanthomonas TALE)?) (UniProt Q56830)
[9] = system: CEACAM5 TALE C TALE-TF (VP64) (synthetic (Xanthomonas TALE)?)
[10] = biological target: CEACAM5 TALE E TALE-TF (VP64) (synthetic (Xanthomonas TALE)?) (UniProt Q56830)
[11] = system: CEACAM5 TALE F TALE-TF (VP64) (synthetic (Xanthomonas TALE)?)
[12] = biological target: CEACAM5 TALE B TALE-TF (VP64) (synthetic (Xanthomonas TALE)?) (UniProt Q56830)
[13] = biological target: CEACAM5 TALE D TALE-TF (VP64) (synthetic (Xanthomonas TALE)?) (UniProt Q56830)

IL1RN promoter reporter (hg19 chr2:113874366-113875462)
activity [1]: 12 fold RLA
activity [2]: 5.76 fold RLA
activity [3]: 14.4 fold RLA
activity [4]: 6.75 fold RLA

KLK3 promoter reporter (hg19 chr19:51357466-51358177)
activity [5]: 4.57 fold RLA
activity [6]: 25.1 fold RLA
activity [7]: 45.8 fold RLA
activity [8]: 2.17 fold RLA

CEACAM5 promoter reporter (hg19 chr19:42211804-42212651)
activity [9]: 3.74 fold RLA
activity [10]: 2.41 fold RLA
activity [11]: 4.7 fold RLA
activity [12]: 11.6 fold RLA
activity [13]: 4.59 fold RLA
